Read-outs that look alike come from different tables or passages of the source.
Key:
[1] = target: T1, actin filaments (rabbit skeletal muscle actin) (rabbit, UniProt P68135 1-377); experiment: co-sedimentation
AUC = target: the molecule itself; experiment: AUC
[2] = target: T1, actin filaments (rabbit skeletal muscle …); experiment: co-sedimentation; remark: listed apart in the source

- Kd [1]: 1.2 µM
- Kd [2]: 1.7 µM
B1: Drp1-WT (full-length human DRP1 isoform 3) (enzyme, UniProt O00429-4 1-699, looked up)
chain: MEALIPVINKLQDVFNTVGADIIQLPQIVVVGTQSSGKSSVLESLVGRDLLPRGTGIVTRRPLILQLVHVSQEDKRKTTGEENGVEAEEWGKFLHTKNKLYTDFDEIRQEIENETERISGNNKGVSPEPIHLKIFSPNVVNLTLVDLPGMTKVPVGDQPKDIELQIRELILRFISNPNSIILAVTAANTDMATSEALKISREVDPDGRRTLAVITKLDLMDAGTDAMDVLMGRVIPVKLGIIGVVNRSQLDINNKKSVTDSIRDEYAFLQKKYPSLANRNGTKYLARTLNRLLMHHIRDCLPELKTRINVLAAQYQSLLNSYGEPVDDKSATLLQLITKFATEYCNTIEGTAKYIETSELCGGARICYIFHETFGRTLESVDPLGGLNTIDILTAIRNATGPRPALFVPEVSFELLVKRQIKRLEEPSLRCVELVHEEMQRIIQHCSNYSTQELLRFPKLHDAIVEVVTCLLRKRLPVTNEMVHNLVAIELAYINTKHPDFADACGLMNNNIEEQRRNRLARELPSAVSRDKVASGGGGVGDGVQEPTTGNWRGMLKTSKAEELLAEEKSKPIPIMPASPQKGHAVNLLDVPVPVARKLSAREQRDCEVIERLIKSYFLIVRKNIQDSVPKAVMHFLVNHVKDTLQSELVGQLYKSSLLDDLLTESEDMAQRRKEAADMLKALQGASQIIAEIRETHLW
- stoichiometry N (AUC): 2

— article PMC10881151 (Molecular Biology of the Cell, 2024)
